According to article PMC11341566 (Nature Communications, 2024):
Square brackets hold non-standard residues; d marks the D form.

What was measured:
[1] = biological target: CP-CNDS, fluorescein-labelled (mixture of DCP1 and DCP2, mass ratio 2:3); assay: fluorescence polarisation
trypsin = biological target: T1, trypsin (UniProt P35030 81-304)
T1 sequence (looked up): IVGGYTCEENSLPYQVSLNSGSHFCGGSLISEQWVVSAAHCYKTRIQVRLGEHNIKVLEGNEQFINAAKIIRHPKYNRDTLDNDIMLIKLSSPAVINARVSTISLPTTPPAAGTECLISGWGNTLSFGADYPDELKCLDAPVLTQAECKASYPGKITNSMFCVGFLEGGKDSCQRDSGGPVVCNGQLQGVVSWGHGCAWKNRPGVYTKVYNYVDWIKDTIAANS

lipase = biological target: T2, lipase (UniProt P16233 17-465)
T2 sequence (looked up): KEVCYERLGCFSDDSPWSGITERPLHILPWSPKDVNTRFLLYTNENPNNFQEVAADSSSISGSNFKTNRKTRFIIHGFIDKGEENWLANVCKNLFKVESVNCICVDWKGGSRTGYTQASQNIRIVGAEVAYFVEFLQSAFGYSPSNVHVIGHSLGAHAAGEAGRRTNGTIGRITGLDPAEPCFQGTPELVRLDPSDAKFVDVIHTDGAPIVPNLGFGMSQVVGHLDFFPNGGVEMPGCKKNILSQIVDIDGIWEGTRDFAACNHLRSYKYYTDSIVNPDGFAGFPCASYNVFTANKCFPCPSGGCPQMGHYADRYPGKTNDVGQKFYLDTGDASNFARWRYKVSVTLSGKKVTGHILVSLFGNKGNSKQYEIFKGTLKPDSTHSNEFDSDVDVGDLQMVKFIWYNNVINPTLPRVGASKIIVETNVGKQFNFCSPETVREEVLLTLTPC

A Kd (Ac-(rada)4-NH2) of 227 nM was found for chymotrypsin (enzyme) in this work.

B1: trypsin (enzyme)
chain: IVGGYTCEENSLPYQVSLNSGSHFCGGSLISEQWVVSAAHCYKTRIQVRLGEHNIKVLEGNEQFINAAKIIRHPKYNRDTLDNDIMLIKLSSPAVINARVSTISLPTTPPAAGTECLISGWGNTLSFGADYPDELKCLDAPVLTQAECKASYPGKITNSMFCVGFLEGGKDSCQRDSGGPVVCNGQLQGVVSWGHGCAWKNRPGVYTKVYNYVDWIKDTIAANS
A Kd [1] of 102 nM was found for B1 in this work.

B2: lipase (enzyme)
chain: KEVCYERLGCFSDDSPWSGITERPLHILPWSPKDVNTRFLLYTNENPNNFQEVAADSSSISGSNFKTNRKTRFIIHGFIDKGEENWLANVCKNLFKVESVNCICVDWKGGSRTGYTQASQNIRIVGAEVAYFVEFLQSAFGYSPSNVHVIGHSLGAHAAGEAGRRTNGTIGRITGLDPAEPCFQGTPELVRLDPSDAKFVDVIHTDGAPIVPNLGFGMSQVVGHLDFFPNGGVEMPGCKKNILSQIVDIDGIWEGTRDFAACNHLRSYKYYTDSIVNPDGFAGFPCASYNVFTANKCFPCPSGGCPQMGHYADRYPGKTNDVGQKFYLDTGDASNFARWRYKVSVTLSGKKVTGHILVSLFGNKGNSKQYEIFKGTLKPDSTHSNEFDSDVDVGDLQMVKFIWYNNVINPTLPRVGASKIIVETNVGKQFNFCSPETVREEVLLTLTPC
A Kd [1] of 251 nM was found for B2 in this work.

A Kd (trypsin) of ~342 nM and a Kd (lipase) of ~452 nM were found for Ac-[dR][dA][dD][dA][dR][dA][dD][dA][dR][dA][dD][dA][dR][dA][dD][dA]-NH2 [Ac-(rada)4-NH2] in this work.
